Assay results reported in patent US20120316118A1 (OSSTEMIMPLANT, published 2012).

How the values were obtained:
[1] = target: T1, BMPR-II (BMP receptor type II) (UniProt Q13873 27-151, limits assumed); test: ELISA: peptide coated on plate, BMPR-II added, detected with anti-receptor antibody and HRP secondary, ABTS, absorbance at 595 nm
T1 construct: Soluble receptor added to the PEP7-coated plate; also called BMPR-11; BMP-II
T1 sequence (looked up): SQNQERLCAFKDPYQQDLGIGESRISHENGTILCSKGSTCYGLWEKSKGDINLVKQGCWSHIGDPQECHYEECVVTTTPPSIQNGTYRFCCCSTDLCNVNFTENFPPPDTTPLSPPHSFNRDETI
Procedure: (§1) PEP7 ([…]) was added to an ELISA plate and incubated at 4° C. for 12 hours. After PEP7 was coated on the plate, BMPR-1A or BMPR-II ([…]) was added thereto and reacted at room temperature for 2 hours, to obtain a PEP7-BMP receptor complex. A primary antibody specific for a BMP receptor (0.5 mg BMPR-1A, BMPR-11) was added to the complex and reacted at room temperature for 1 hour. A secondary antibody (BMPR-1A- or BMPRII-Fc Ab-HRP) was then added to the resulting mixture and reacted at room temperature for 1 hour.

[2] = target: T2, BMPR-IA (BMP receptor type IA) (UniProt P36894 24-152, limits assumed); test: ELISA: peptide coated on plate, BMPR-1A added, detected with anti-receptor antibody and HRP secondary, ABTS, absorbance at 595 nm
T2 construct: Soluble receptor added to the PEP7-coated plate; also called BMPR-1A; BMP-specific receptor
T2 sequence (P36894 24-152 limits assumed): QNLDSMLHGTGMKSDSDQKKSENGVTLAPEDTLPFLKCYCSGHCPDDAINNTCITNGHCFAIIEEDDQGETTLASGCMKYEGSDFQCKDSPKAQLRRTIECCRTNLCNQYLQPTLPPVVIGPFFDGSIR
Procedure: as §1

binding affinity relative to PEP 111 (ELISA absorbance) [1]: ~23 % higher than PEP 111
binding affinity relative to PEP 111 (ELISA absorbance) [2]: ~23 % higher than PEP 111
B1: PEP7 oligopeptide (SEQ ID NO:1) (peptide)
peptide: KIPKPSSVPTELSAISMLYL
notes: Synthetic peptide made by the Fmoc/tBu method, coated on the ELISA plate
